Reference: the domain aggregation screens of Martell et al. (2025)

Test: soluble fraction after stress (log2 fold change); higher = more stays soluble; pooled small domains, quantitative proteomics
Conditions: stress: 50 degC
Procedure, shortened: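 Pooled custom libraries of small protein domains were each held under stress at 50°C. The read-out, high-throughput quantitative proteomics, tracked how much of each protein stayed soluble. This is reported as a base-two log fold change used to indicate aggregation propensity. Higher values mean more protein remains in solution.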

Sequence | soluble fraction (log2)
HMANILKHKNKDGVITSYTIRVYHGYDEAGKRLRPYTMNYKPAPNMTARQIEKELNRQAVQFEEQIKNGYA | -0.699
HMANKLTSTNLAKQHKMGLSEMYAELMNSGYLIEKDGKYELTPLGISIGGESKPNRYKKGEFYFLWPSDIS | -0.29
HMANLLNLREIPVANIRPELTMFLIPGENITQAFQTIRDQVVFTNKRLIVANVQGLTGKKVSYTSYPY | -0.374
HMANPFQELTERELDVLRQVAAGKNNREIAEALFIGEKTVKTHISNILSKLHLADRTQAAVYAWQQGMM | -0.0277
HMANTVVMPNLLGKTMTEAKIELKELGIDITLKGSESSSKYSAGQIMEQNIAEGTKVEVGSSVEVTIAGS | -0.306
HMAPAPDEAFAEFVRSSAPSLTRTAWLLTGDRGHAQDLVQNAYAKTLQAWGRLDAEGALAYTRRAVIT | 0.00536
HMAPDGIEDKEGWLKVLPMITNLSIQMQNLQARGMDYEHIRNLLHETLLRYDDRIDSNLFIPNV | 4.47e-05
HMAPDNDELEKAKKIVNAFIEAKAKGLGVVSLGTKMIDAPVVKRAQKIIDQTIVMGKLSLNWQDEFFN | -0.0351
HMAPEVTVHDGSIVVRGHVGGVTVYDESGRQIASVQSRGAVAIPVPAGHTYLYIVKPEGKPAIKVRAAH | 0.0927
HMAPKSALKIIEQISNNPRATMTDLANLTGYSRRWVAQTIKRLQEENIIKRIGSDKSGYWEIIG | -0.321
HMAPLATLEADGNGAVKLPNLAGHAIREVAAALGGANLALIPIGSGTSWKQNPAPGTILHKGDTVTVYF | -0.0832
HMAPLEPLTDRETEMLVRLANGASNKVMARESFVSENTIKFHLKNIYAKLGVTSRLQAIAAARNQGLI | -0.891
HMAPLRTQYVNVNYANAAEIKTLISGADKEVGSLLSERGSVVVDKRTNTLIIQDTQARLNDIGDLIEQLD | -0.0505
HMAPMYGEFENVRLTDAQLDKLNARFPPEQVQREIEALSGYMRSKGKRYADHYATLLNWLRRDFPP | -0.202
HMAPNVEENSKLIGEIGMTLTPLRPSGIATINNRRVDVVSNGDFIDQDERVMVKRVQGARVVVIPV | 0.109
HMAPPDFTTFMRNYQDMVYSTAVRLIGNETQAEDIAQEVFIKAHAHFENLRTSPSAGGWLKTVATNLSIN | -0.997
HMAPQAETLLRQVMALPSKDRAVLYLHYYEGFSTREVGDMLHISQSAVTTRLLRARKKLKEIL | 0.0889
HMAPRLTERERQVLQLIAEGLTSMQIGDRLHIAASTVDVHRRNLMRKLDLHNVADLTRYAITQGISP | -0.0624
HMAPRQDIAYYTVKPGDTVLAIAEKFGLQPETLMWSNSIIEQNPDRLSIGDELRILPVDGVLHVVK | 0.0612
HMAPRSSAVYFYLSQVALKKNQPRKAEAMARRGLTVSQDANRRRALWQLILRSGQAQNNTRVIREAQQAL | 0.19
HMAPSLSEYAYEEIKHAIERGVYPPGAKLITQEIADRLGISRTPVVAAVNRLTAEGYADAVPQHGIFVK | 0.0573
HMAPVLTRREHEVLHLLTDGLDNRTIARNLFISEATVKFHLHNIMGKFGVHRRAALVSTALRG | -2.21
HMAPVTPEERAQAMEEYKAMVTIEGYTPPKNIIEQNYKRGLWSETMLNMAVTKGAITEAEKLEIMN | 0.124
HMAQIVNLPRKNVNGASYYYYEVQPKETIYSISRKLGVSGAEIQRHNPSVADGLKIGQVLYFPAEG | 0.0843
HMAQLPADMSKVKSADISEAQLQEFIQKATSSGYNMNQIEMEFAKRGMSENEVSLLRPRLRRLMAS | -0.031
HMAQLSDDEQAIIDTITRRGDATMSELIASVNVSTPRLMSMLIDMEFRSLITALPGGRYQIRLIN | -0.912
HMAQLTPREREVLVLIAEGKSNKEIADQLNIGVRTIETHRERIMRRLNIHSVAGLTKYAIANGLVTL | 0.116
HMAQPIPSGADIRAAREAAGMTLRRFAEYIAGPDFSTWSRYETGKPIRVKNISPEVWQRVRKFIAQNKG | -0.0609

Sequence | soluble fraction (log2)
HMAQQEMEIIPLRHRQVEQVMPTLRPLLEPGAALSGMNNQLILRASRKNREEIKQALAVIDT | 0.172
HMAQSEDLMVMAQRILGGPEAQSFFQAEATRQGLAGFLPEPIPDFLQRLERKLSGSVGSATAHAMVAQTMG | -0.179
HMAQSLAQKINNYILTNRSSIANVAKSIGYSRTTVSRYLAGKYDSDPTDLENKLAEFLAHETGE | 0.076
HMAQTEIIRVTKDIKKGDAITADKFEKVKVGAYNLPGNVVKNADELKGKFAAADLVRGDYILTSKLTDNP | 0.146
HMAQVRSTVERRENGTYTVELNLNDDVDNVMRLQLMVATKEMAEDLAQRFQKNPEQVYSQLVTALYG | 0.0631
HMAQVSDDAELEKWADTAIDEHPKPVEEYRAGNAASINFLMGQVMKMSRGKANPGAVMQILKQKLD | 0.109
HMAQVSDTGAIAKIVADAIAANPKQVQQYLDGNEKVLMYLVGQVMKLSKGKANPPMVIQLLKEQLG | -0.0543
HMAQVSDTGELEGVVDGVLAANAKSVADFQAGKENAFQYLIGQVMKETKGKANPEVVATLLRTKLS | -0.382
HMARAGKLAQDMAVWTKETMLNTERNFISLRHFKRELLRRTLAPGESEQTVRAMEEAGYIQVKDGLVFPIK | -1.74
HMAREQISVSQMVRDVRDGQVKNIEVLGQELRLSYADGSQKVTRKEEGQQALEILFASDIDLAALDLEVQ | 0.0848
HMARIDYHAMDSDDLSFSEGELLEIYDKPGSFWWKGRSLVSGDEGDIPS | -0.157
HMARKFQKDTGYLNKKERTWLLDFFPSLKKYLYTGAYIRSIIVVESNVTYTDKELPSNYTFTYKFA | -0.252
HMARKISVEALGKYFPNSPMLAAAVAVTGVMKKDEFIHEMRASYKHKFAKKPEVIDGNMKALTMTFEA | -0.126
HMARNHYETLGVGRTATGDEIRKAYRSEAQKHHPDRGGDAERMQSLNEARDTLLDDQARAAYDQELDL | 0.125
HMARPLLSPREQDVLALIARGFSYSEVARLQAVTVHTIRTHIRNLYAKLSVHSKTEAVFEATRMGLLP | -1.63
HMARRKRDIDSDINVKVFEHWLDNLDSASRESFSAFAEETFSPIQVYLYAKFLGYESSIIAVDHWVAVAYP | 0.104
HMARSVAEFVERGRSGGSLERPKLQRMLEYIQDRPVDFVIVHKIDRLARNRADDAAITKTIRGAGAYLVST | -0.0402
HMARTGSEELVGALATVREPLAPWGQVFVQGALWRARSADGGPVDAGQQVVVRAVEGLTLVVEPRD | 0.00428
HMARYSMLEEQLLQLINKHGTMSTPKLVEATGAPRSTVTYQLRKLLESGTIERTQPARSPKQSYRIKS | -0.238
HMASATGVVTAASLNVRSGAGTNYSVVNTLAKGTKVTVLNTADGWYEIEATVNNEKITGYVSATYIAMD | 0.222
HMASLSRRELEVLELLALRLTVKEVAERLVISELTAKRHTSNIYQKLGVNRRRDALAAAQARGLLGAR | -2.9
HMASRSQTEIMHLLSSGLPKHELVTALQSLLGISKPTAYKYLSQDVSIAYDHMVKILEYPPFQRVLYQ | -1.34
HMASSVKAPLPGVILDIKVKVGDTIKNGDTVVILEAMKMENNIHSDKDGVVKSIEVNKGDSVLEGATLLTI | -0.0654
HMASVDDILDRFKQAAKVTTDADLAKVLGLSRQSIAAARLRAKIPASWFPKMSSLFNISTEWLYRG | -0.628
HMASVRPVAPPDPKTHTRLTYRIRRGDTLERIGRRYRVSIAEIQAWNTLRDPGDILAGQRLVIWIPTS | -2.3
HMATAPQIRAIYALGSKLGINQNSREDNLHQLVYSITGKESIKGLTNYEAARVQSELANMERK | 0.22
HMATEPLQPRVEVLGSTLATTNGARIVGVYDMSGREVSATQLSKGVYIVKVTNGSVTATQKVFI | 0.112
